{"source": "paper PMC3897602", "about": "(PLoS ONE, 2014)", "origin": "cited, not measured here", "conditions": "in vivo, po"}
{"substance": "biotinylation of exendin-4: biotinylated exendin-4 reported by Jin et al", "values": [{"measurement": "apparent bioavailability", "value": 3.95, "unit": "%"}]}
